Our source for the protein production values is a protein production outcome set (Wang et al. 2014).
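Also: failed if final PepcDB status was selected cloned or expressed and not failed if soluble or beyond.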

The series is described as follows: label from the status in PepcDB records.
With “MEEAPQVGDRLHCYWNLVSKDREKVFEAVVTDVETVSFRELRENDELAREDGFRDAKQLEEEFQRMYQGELTDDTEFQVIRFRKLPVDEWEGKRIDEKAMITRRADILFDSGKFSKSELCYTAALRIDPNDVYILNRLGDNLTRLGRFDEALENYRRAIMIEPENPYIWNNMAITLLNAGRVDEALEASERALKIKHDPDLLYWRGVMLEVAGKPLEALESYERSLEIDPRNAEVWTARGNLLSDLGRMEEAIESYNSALELALEDEQDPNVWNRKGNALLELERFNEALECYRRAIEMEPENDVYWTNMGVALLELERFDEALEAFNRALMINPKNEDAGILREECLENL”, the protein production entry is listed as “failed”.

For “MEEFAVVIIGAGPAGGQCARQLAQQGVRVLLVEQHSNFSQNNYSSAASPLETMALFDLPPGVVARYWRNLAIAATEKEQIWYSDQPRGVVFDFAKLRQFLADTVTKAGGQVWLGHRFWGYQQVGDGLEVTLRRSSKNSLSSDSVEKVEKVTVKTQVLIDATGSKRAVINCGQPKATDNNQYYRGIGTEYLITVDETTHQRFADTLVFFLGYRWSPQGYSWIFPMDNHQLKVGTAIFAGQHRYLGELKPLRSYTEAIIRDYLKLEKSQYHLEEIHGSVLDYAVNQGDTYHRGSVLAIGDAVSTVNFLGGEGIRHGMQGANIAVPFVADYLRGHVQAFEKYEQAMKAHFAEPWQRTEKLSQRVYLEFGDRQIDLGVTYLSYLRYDDVLDLLFHYRFDRIYGGITPLLLKKVAQFSQQCRQWLRKLSPLEHHHHHH”, the protein production entry was “failed”.

Consider “MEEGPIKKKLKSAGQGSGKTDAFRNFEQFFFRLNTLYTFLICRKHVVPTFKTLCGPIETALKRTVTKEDLAMVMALMPRECVFKYIDENQIYTETKIFDFNNGGFQQKENDIFELKDVDDQNQTQKSTQLLIFEFIDGTMQRSWSASDRFSQIKIPTYTTEEMKKMISKREALFKSRLREFILEKEKANLDPFSELTNLAQKYIPRERDYEDPIEAMMKAKQESNEMSIPNYSNNSVITTIPQMIEKLKSTEFYASQIKHCFTIPSRTAKYKGLCFELAPEVYQGMEHENFYSHQADAINSLHQGENVIITTSTSSGKSLIYQLAAIDLLLKDPESTFMYIFPTKALAQDQKRAFKVILSKIPELKNAVVDTYDGDTEPEERAYIRKNARVIFTNPDMIHTSILPNHANWRHFLYHLKLVVVDELHIYKGLFGSHVALVMRRLLRLCHCFYENSGLQFISCSATLKSPVQHMKDMFGINEVTLIHEDGSPTGAKHLVVWNPPILPQHERKRENFIRESAKILVQLILNNVRTIAFCYVRRVCELLMKEVRNIFIETGREDLVTEVMSYRGGYSASDRRKIEREMFHGNLKAVISTNALELGIDIGGLDAVLMCGFPLSMANFHQQSGRAGRRNNDSLTLVVASDSPVDQHYVAHPESLLEVNNFESYQDLVLDFNNILILEGHIQCAAFELPINFERDKQYFTESHLRKICVERLHHNQDGYHASNRFLPWPSKCVSLRGGEEDQFAVVDITNGRNIIIEEIEASRTSFTLYDGGIFIHQGYPYLVKEFNPDERYAKVQRVDVDWVTNQRDFTDVDPQEIELIRSLRNSDVPVYFGKIKTTIIVFGFFKVDKYKRIIDAIETHNPPVIINSKGLWIDMPKYALEICQKKQLNVAGAIHGAQHAIMGMLPRFIVAGVDEIQTECKAPEKEFAERQTKRKRPARLIFYDSKGGKYGSGLCVKAFEHIDDIIESSLRRIEECPCSDGCPDCVAASFCKENSLVLSKPGAQVVLHCILGHSEDSFIDLIKDGPEPNMPEIKVETVIPVSEHVNFSDDFKIIDVRRATKDDTHTNEIIKKEI”, for which the protein production entry is “failed”.

For the sequence “MEEGVNMDIRPTRIELIRTRRRIRLAKKGLDLLKMKRSALIYEFLQISRTIRGMKENLRKEVVEALNIIKVASVLEGSLALERIANMSSDSRINVNSRNVMGVNIPTLEVSYNLSILSDVYRTVSVPVAIDDSIRRFQKLFYDLILIVEKENSLRNLLMEIDRTKRRSNAIENILIPRLEYQAKMIKMTLDERERDTFTTLKTIKKKIEAENDLEHHHHHH”, the protein production entry is “failed”.

As to “MEEHNANPLRFETNPYHNIVIKDRKVMELTGVKQIDSFDANEFLLETAQGWLMIQGKDLKLGKLDTERGDVIINGIIEALSYVSNKKGTAKETMMSKLFR”, the protein production entry is “failed”.

Consider “MEEKQERYSISEKTYQEFIDHTRVLALEERGIVQCGIATCRDFFSVYRKNQKKHMLLYTVRGKGWLESGACRYELEPGSLVVVPAGIENGFGMEDETWQIAWVFLSQHKEWSMVGENISYQLTPAPEVMYSCIQTLLRSINLSIDYGSAVGAHSVAQLELMLNMPSSESVSRNQLKLRRVFDLVQRQLHKDWSVEQLAALYPCSEPHLHRLTQQQFGRSPMAHLMRMRMEYAARLLRSTEWPIQHIGEIVGYPTSANFSTRFKAWSSMTPREFRQNGRIERDPEK”, for which the protein production result is “failed”.

In the case of “MEEKQILCVGLVVLDVISLVDKYPKEDSEIRCLSQRWQRGGNASNSCTILSLLGAPCAFMGSMAPGHVADFVLDDLRRYSVDLRYTVFQTTGSVPIATVIINEASGSRTILYYDRSLPDVSATDFEKVDLTQFKWIHIEGRNASEQVKMLQRIDAHNTRQPPEQKIRVSVEVEKPREELFQLFGYGDVVFVSKDVAKHLGFQSAEEALRGLYGRVRKGAVLVCAWAEEGADALGPDGKLLHSDAFPPPRVVDTLGAGDTFNASVIFSLSQGRSVQEALRFGCQVAGKKCGLQGFDGIV”, the protein production entry is “failed”.

Consider “MEELFCIGCGARIQTENKDAAGYTPRAALEKGLETGELYCQRCFRLRHYNEITDVHITDDEFLKLLHEVGDSDALVVNVIDIFDFNGSIIPGLSRFVAGNDVLLVGNKKDILPKSVKDGKVTQWLTERAHEEGLRPVDVILTSAQNHHAIKDLIDTIEKYRHGQDVYVVGVTNVGKSTLINAIIREITGSRDVITTSRFPGTTLDKIEIPLDDGSYIFDTPGIIHRHQMAHYLTAKNLKYVSPKKEIKPKTYQLNSEQTLFLAGLARFDFISGQKQGFTAYFDNNLNLHRTKLVGADEFYTKHVGKLLTPPTGKEVSDFPKLVRHEFTIKDKMDIVYSGLGWIRVKSEAENPVVVAAWAPEGVAVVLRKALI”, for which the protein production result is reported as “failed”.

For “MEELVGLLRIRVKRGINLAQRDTLSSDPFVVITMGSQKLKTRVVENNCNPEWNEELTLALRHPDEPVNLIVYDKDTFTSHDKMGDAKIDIKPFLEVHKMGLQELPDGTEIKRVVPNRENCLAEASSIVSNNGKIVQNMILLLRNVECGEVEIQLEWIDIPGSRGL”, the protein production entry is given as “failed”.

Turning to “MEEPKWLEGLLRTNFFSICPRHRETPRNECNMFCLSCQNAAFCFYCRSSFHIDHPVLQIRRSSYHDVVRVSEIENALDIRGVQTYVINSARVLFLNERPQPKNSSHEPFLIPFASVPWVARFVFLHLFSMQNSFL”, the protein production entry was “not failed”.

Regarding “MEEPLRQESPTTFHAKTSDRGQIDLGISKHKTVAEAWEGYRQRRHRSTHLQAIETALLQQRNDRTEDEDIVLWKGKNDVYKPQFLTKETLNHMRTISMDVDWYKGVWFGHSTPKYSFCVWLAVLNRLSTGDRMTHWNGGQSAACVLCHNAPETRDHLFFSCDFASIVWSNLARGIYGDRFSTHWQDLIQAISGSWMTPLDSFFARYLFQATVHTIWRERNGRNHGEKPNSAALLIK”, the protein production entry is recorded as “failed”.

With “MEERSQLFLEQYLSSVSREVSEKYTSFSADYFCADEYNANVCADLILRGEKRASCSLEYWYSQKGELMPQVGHLQVVTNWDGKPICIIEITSVSKCQYNQVSEDFAASEGEGDKSLAWWQEAHRNFFSRECHELGIEFREDMLLVLEHFKVVYH”, the protein production entry is on record as “not failed”.

In the case of “MEESATVEVVVGRVGRAHGLRGDVVVEVRTDEPDARFGVGATVQIEGSRRDLTVVRSRWAKGCLIVAFDEVKDRQGAEELRGSVLVVDVEPNDDPDDPDEFWDRRLRGLTVVDESGKSRGAVKDVLHMPAQDVLVIDVSGEEHLVPFVHQLVPTVDVASGRIVVSGIPGLLDSNAEEAR”, the protein production entry is on record as “failed”.

“MEESRESPAEHGYYMPAEWDSHAQTWIGWPERQDNWRHNALPAQRVFADVAKAISKFEPVTVCASPAQWENARKQLPEDIRVVEMSMNDSWFRDSGPTFIVRKRPVKLSSLNRNIAGIDWNFNAWGGANDGCYNDWSHDLLVSRKILALERIPRFQHSMILEGGSIHVDGEGTCLVTEECLLNKNRNPHMSKEQIEEELKKYLGVQSFIWLPRGLYGDEDTNGHIDNMCCFARPGVVLLSWTDDETDPQYERSVEALSVLSNSIDARGRKIQVIKLYIPEPLYMTEEESSGITQDGEAIPRLAGTRLAASYVNFYIANGGIIAPQFGDPIRDKEAIRVLSDTFPHHSVVGIENAREIVLAGGNIHCITQQQPAEPTSVAENGH”: the protein production result was “not failed”.
